# In IntAct's records for PubMed 12700764:
# Target: mef2b_human MEF2B (UniProt Q02080)
# Sequence (Q02080 whole entry): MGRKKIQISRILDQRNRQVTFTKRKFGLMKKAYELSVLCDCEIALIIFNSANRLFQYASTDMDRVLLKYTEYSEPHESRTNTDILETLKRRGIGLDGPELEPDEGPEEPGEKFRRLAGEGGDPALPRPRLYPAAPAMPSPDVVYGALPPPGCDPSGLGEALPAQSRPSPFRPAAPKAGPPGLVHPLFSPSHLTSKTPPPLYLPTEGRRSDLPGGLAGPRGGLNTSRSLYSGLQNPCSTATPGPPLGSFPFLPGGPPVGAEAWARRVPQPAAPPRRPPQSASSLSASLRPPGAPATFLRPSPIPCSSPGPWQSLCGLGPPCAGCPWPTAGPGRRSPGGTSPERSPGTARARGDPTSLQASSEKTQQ
row,Substance,effect of a mutation on the interaction
1,"Calcineurin-binding protein cabin-1 (Homo sapiens), Q9Y6J0 I2176A",decreasing interaction strength
2,"Calcineurin-binding protein cabin-1 (Homo sapiens), Q9Y6J0 L2172A",disrupting interaction strength
3,"Calcineurin-binding protein cabin-1 (Homo sapiens), Q9Y6J0 L2172K",disrupting interaction strength
4,"Calcineurin-binding protein cabin-1 (Homo sapiens), Q9Y6J0 L2172W",disrupting interaction strength
5,"Calcineurin-binding protein cabin-1 (Homo sapiens), Q9Y6J0 Q2170A",with no effect
6,"Calcineurin-binding protein cabin-1 (Homo sapiens), Q9Y6J0 Q2170W",with no effect
